Tested on: Hsf1 wt (trimer) (human)
Assay: fluorescence polarization
Conditions: printed as <= 5 nM; 25 C; Hsf1 SEC buffer: 25 mM HEPES/NaOH pH 7.5, 150 mM NaCl, 10% glycerol, 2 mM DTT; FP at 25 C (5 nM DNA titration; 25 nM DNA and 100 nM trimer for dissociation) …

Substance 3xHSE DNA (Alexa Fluor 488) has a Kd of under 5 nM.
